This is an account of results in IntAct's records for PubMed 17703188.

To fix the notation:
B1: Discoidin domain-containing receptor 2 (Homo sapiens), Q16832 (parent)
chain: MILIPRMLLVLFLLLPILSSAKAQVNPAICRYPLGMSGGQIPDEDITASSQWSESTAAKYGRLDSEEGDGAWCPEIPVEPDDLKEFLQIDLHTLHFITLVGTQGRHAGGHGIEFAPMYKINYSRDGTRWISWRNRHGKQVLDGNSNPYDIFLKDLEPPIVARFVRFIPVTDHSMNVCMRVELYGCVWLDGLVSYNAPAGQQFVLPGGSIIYLNDSVYDGAVGYSMTEGLGQLTDGVSGLDDFTQTHEYHVWPGYDYVGWRNESATNGYIEIMFEFDRIRNFTTMKVHCNNMFAKGVKIFKEVQCYFRSEASEWEPNAISFPLVLDDVNPSARFVTVPLHHRMASAIKCQYHFADTWMMFSEITFQSDAAMYNNSEALPTSPMAPTTYDPMLKVDDSNTRILIGCLVAIIFILLAIIVIILWRQFWQKMLEKASRRMLDDEMTVSLSLPSDSSMFNNNRSSSPSEQGSNSTYDRIFPLRPDYQEPSRLIRKLPEFAPGEEESGCSGVVKPVQPSGPEGVPHYAEADIVNLQGVTGGNTYSVPAVTMDLLSGKDVAVEEFPRKLLTFKEKLGEGQFGEVHLCEVEGMEKFKDKDFALDVSANQPVLVAVKMLRADANKNARNDFLKEIKIMSRLKDPNIIHLLAVCITDDPLCMITEYMENGDLNQFLSRHEPPNSSSSDVRTVSYTNLKFMATQIASGMKYLSSLNFVHRDLATRNCLVGKNYTIKIADFGMSRNLYSGDYYRIQGRAVLPIRWMSWESILLGKFTTASDVWAFGVTLWETFTFCQEQPYSQLSDEQVIENTGEFFRDQGRQTYLPQPAICPDSVYKLMLSCWRRDTKNRPSFQEIHLLLLQQGDE

In the assay the parent is B1. The settings on record: with coba2_human COL11A2, P13942.
coba2_human COL11A2, P13942, sequence (P13942 whole entry): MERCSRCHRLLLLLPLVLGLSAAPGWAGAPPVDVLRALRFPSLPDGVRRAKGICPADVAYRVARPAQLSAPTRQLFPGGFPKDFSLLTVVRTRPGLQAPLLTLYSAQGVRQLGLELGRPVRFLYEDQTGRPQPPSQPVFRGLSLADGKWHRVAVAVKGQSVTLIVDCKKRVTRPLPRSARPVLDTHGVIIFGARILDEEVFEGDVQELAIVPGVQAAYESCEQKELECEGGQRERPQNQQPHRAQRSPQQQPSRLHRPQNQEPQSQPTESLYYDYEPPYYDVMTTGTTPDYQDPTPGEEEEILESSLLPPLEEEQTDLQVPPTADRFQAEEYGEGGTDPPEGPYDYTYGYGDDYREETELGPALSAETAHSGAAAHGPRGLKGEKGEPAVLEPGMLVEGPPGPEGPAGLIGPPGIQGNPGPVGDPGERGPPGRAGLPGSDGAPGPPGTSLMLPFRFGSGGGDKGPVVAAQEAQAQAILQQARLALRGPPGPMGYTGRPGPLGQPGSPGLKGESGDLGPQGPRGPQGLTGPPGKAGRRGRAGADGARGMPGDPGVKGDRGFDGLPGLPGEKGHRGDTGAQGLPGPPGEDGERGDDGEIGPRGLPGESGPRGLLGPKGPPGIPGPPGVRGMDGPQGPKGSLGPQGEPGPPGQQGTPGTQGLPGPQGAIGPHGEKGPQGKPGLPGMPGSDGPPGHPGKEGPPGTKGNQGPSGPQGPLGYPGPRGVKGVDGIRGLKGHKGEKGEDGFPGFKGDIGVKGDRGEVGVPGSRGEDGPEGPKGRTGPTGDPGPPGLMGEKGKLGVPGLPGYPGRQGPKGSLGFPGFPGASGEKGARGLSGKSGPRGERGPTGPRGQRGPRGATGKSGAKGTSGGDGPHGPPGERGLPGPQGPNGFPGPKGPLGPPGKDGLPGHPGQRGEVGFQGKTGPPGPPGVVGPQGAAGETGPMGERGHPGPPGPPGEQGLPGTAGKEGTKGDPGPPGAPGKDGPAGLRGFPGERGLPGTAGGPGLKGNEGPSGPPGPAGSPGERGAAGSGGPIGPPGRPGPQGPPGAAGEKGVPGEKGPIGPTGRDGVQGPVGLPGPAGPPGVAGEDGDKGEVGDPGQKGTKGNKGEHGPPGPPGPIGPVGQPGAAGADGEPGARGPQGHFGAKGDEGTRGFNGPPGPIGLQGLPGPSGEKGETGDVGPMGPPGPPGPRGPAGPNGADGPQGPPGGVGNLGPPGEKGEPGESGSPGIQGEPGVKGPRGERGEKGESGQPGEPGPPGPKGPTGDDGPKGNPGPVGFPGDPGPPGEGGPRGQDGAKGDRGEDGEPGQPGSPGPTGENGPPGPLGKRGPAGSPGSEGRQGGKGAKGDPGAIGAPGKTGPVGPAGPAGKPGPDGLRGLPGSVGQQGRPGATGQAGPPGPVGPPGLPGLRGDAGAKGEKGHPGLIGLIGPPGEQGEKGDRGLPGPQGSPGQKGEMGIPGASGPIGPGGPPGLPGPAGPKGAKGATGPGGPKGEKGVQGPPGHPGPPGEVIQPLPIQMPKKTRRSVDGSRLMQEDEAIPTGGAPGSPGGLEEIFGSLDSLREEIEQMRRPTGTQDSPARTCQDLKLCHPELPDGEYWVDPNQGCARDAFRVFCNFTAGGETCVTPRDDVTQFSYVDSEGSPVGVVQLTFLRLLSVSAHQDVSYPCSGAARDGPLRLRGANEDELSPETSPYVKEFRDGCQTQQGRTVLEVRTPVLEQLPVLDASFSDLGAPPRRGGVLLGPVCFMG
Consider R105A, for which the “effect of a mutation on the interaction” value is on record as “disrupting interaction”.
As for E113A, the “effect of a mutation on the interaction” value is on record as “disrupting interaction”.
For W52A, the “effect of a mutation on the interaction” value is reported as “disrupting interaction”.
